# System: MS2 coat protein
# Assay: apparent KD of MS2 coat protein; higher = weaker reporter binding
# Conditions: Eterna round: R107
# In short: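 Apparent KD stands for the median, per design, of fits to normalised cluster binding curves. The curves came from titrating on-chip-transcribed RNA switches on Illumina sequencing clusters with SNAP-549-labelled MS2 coat protein, twofold from 0.7 or 1.5 nM to 3 µM. Buffer was 100 mM Tris-HCl pH 7.5, 80 mM KCl, 4 mM MgCl2, without or with constant ligand.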
# [1] = input ligand: theophylline 20 uM
# [2] = input ligand: theophylline 2 mM
# [3] = input ligand: tryptophan 2.4 mM
Sequence,apparent KD of MS2 coat protein (input ligand: arginine 13.2 mM),apparent KD of MS2 coat protein (input ligand: none),apparent KD of MS2 coat protein [1],apparent KD of MS2 coat protein [2],apparent KD of MS2 coat protein [3]
GACUCUGUCGGAAGGAGCGCAGAGCCGGUCUUCUACAUGAGGAUCACCCAUGUGCUGGUUAUGCAGGUAGGUCGCCGACGCGUGG [Ismatiza],17 nM,27.1 nM,40.2 nM,27.2 nM,24.6 nM
GACUGUAAAAUAUGACUCAGGGUGACGUCCCGAGGACCGGUACGGCCGCCACUCGAGCGAAUACAUGAGGAUCACCCAUGUAGUC [theeternabot_exclusion_MS2_Trp_A_15],20.5 nM,45.4 nM,61.5 nM,81.2 nM,54.6 nM
GAGCUCGUGGACUGGCGUGCUCCGCUCCGUCGAGGACCGGUACGGCCGCCACUCGACAUGAGGAUCACCCAUGUGUGAGCUCGCG [#1 Exclusion - Tryptophan A Attempt #20 (HarryS)],35.3 nM,–,193 nM,134 nM,–
GAGCUGAUGUAGAAAUUUUAUUUAUGAGAUACCAGUACAGAAAUGUACCCUUGGCAGCUCAAUUUUACAUGAGGAUCACCCAUGU [Ex Theophylline A 13],16.8 nM,–,12.5 nM,–,11.5 nM
GAGCUGAUGUAGAGUGGAUAUCCUUGAGAUACCAGUACAGAAAUGUACCCUUGGCAGCUCUUCUUUACAUGAGGAUCACCCAUGU [Ex Theophylline A 24],12.8 nM,–,14.3 nM,–,12.5 nM
GAGCUGAUGUAGGGCGGAUAUCCGUGAGAUACCAGUACAGAAAUGUACCCUUGGCAGCUCUUCCUUACAUGAGGAUCACCCAUGU [Ex Theophylline A 26],23.1 nM,–,25.5 nM,–,19.4 nM
GAGGAAACUCACAUGAGGAUCACCCAUGUACGAGGACCGGUACGGCCGCCACUCGAAACCAUGGGCGGUUGUACAUGGAAACAUG [Design 2],21.4 nM,–,33.3 nM,34.9 nM,–
GAGUAAACUACGGCCGCCACUCAAGGAGAUCAAUAGAUCAUCGACAUGAGGAUCACCCAUGUAAAGAGGACCGGGUAGAUCCUUA [Same State Typrtophan B GF1],97.8 nM,214 nM,98.9 nM,362 nM,100 nM
GAGUAGAGGACGGCCGCCACUAAACAUGAGGAUCACCCAUGUCGUGAUCCGUUACCUAGAGUAGAUAGGACCGGGUCAUAUAGUC [Exclusion Tryptophan B GF 16],20.8 nM,–,41.5 nM,24.5 nM,–
GAGUCCGCGGCGGCCGCCACUCGCGAUAUAACAUGAUAUCAGGACAUGAGGAUCACCCAUGUCACGAGGACCGGGCCGAUCCUCA [Same State Typptophan B GF 5],17 nM,–,49.2 nM,35.8 nM,–
GAUACGCAGUCGGCCGCCACUUGCUAAGGUGACAAACCAAAACAUGAGGAUCACCCAUGUCUGAUAAGGACCGGGACCACCAUGG [theeternabot_sameState_MS2_Trp_B_14],69.7 nM,–,124 nM,129 nM,–
GAUAUAUAUCGAAGGAGCGGCCCUUGAUCCUCAUGAGACAUGAGGAUCACCCAUGUCUCGGGCCAGGUAGGUCGCGAUAUAUAUC [Astros-omei-mod2],26.3 nM,21.2 nM,28.8 nM,24.2 nM,22.8 nM
GAUCGAAAUAACGCAUAGGAAAACUAUGCGCGAGGACCGGUACGGCCGCCACUCGUCCUCACAUGAGGAUCACCCAUGUACGAUC [#SwitchBubble #CuTurnoff],23.1 nM,–,29.1 nM,27.6 nM,–
GAUGAACUAUAUGAUACCAGACAACAUGAGGAUCACCCAUGUGUAAGUCGUCCUCUGCCUGUCCCUUGGCAGCGUAUAGUUUAUC [XTheo B #18],43.2 nM,–,76.4 nM,–,23.3 nM
GAUGAACUAUGUGAUACCAGACAACAUGAGGAUCACCCAUGUGCGCGUCGUCCUCUGCCUGUCCCUUGGCAGCGUAUAGUUUAUC [XTheo B #13],77.9 nM,–,110 nM,–,47.8 nM
GAUGAACUAUUCGAUACCAGACUACAUGAGGAUCACCCAUGUGUGUCAAUUUCUCAGUCAGUCCCUUGGCAGCGAAUAGUUUAUC [#26 Exclusion-TheophyllineB],53 nM,–,51.7 nM,–,26.3 nM
GAUGAACUAUUUGAUACCAGACUACAUGAGGAUCACCCAUGUGAGUUUAUACUUCAGUCAGUCCCUUGGCAGCAAAUAGUUUAUC [XTheo B #6],38.3 nM,–,60.9 nM,–,42.1 nM
GAUGAACUAUUUGAUACCAGACUACAUGAGGAUCACCCAUGUGUGUUUAUACUUCUGUCAGUCCCUUGGCAGCAAAUAGUUUAUC [XTheo B #4],47.3 nM,–,95.2 nM,–,40.4 nM
GAUGAUAUUGCAGAUACCAGACACAUGAGGAUCACCCAUGUCGCUGAGAUGCUGGAUCGUGUCCCUUGGCAGCUGCGAUAUCAUC [Brazil],38.7 nM,–,106 nM,–,49.6 nM

# Reference: the supplement of paper PMC9170038
